The chains are these.
B1: GpH7-B3 variant Y296_18N/GpL16-k0 (antibody, human IgG1, kappa)
heavy: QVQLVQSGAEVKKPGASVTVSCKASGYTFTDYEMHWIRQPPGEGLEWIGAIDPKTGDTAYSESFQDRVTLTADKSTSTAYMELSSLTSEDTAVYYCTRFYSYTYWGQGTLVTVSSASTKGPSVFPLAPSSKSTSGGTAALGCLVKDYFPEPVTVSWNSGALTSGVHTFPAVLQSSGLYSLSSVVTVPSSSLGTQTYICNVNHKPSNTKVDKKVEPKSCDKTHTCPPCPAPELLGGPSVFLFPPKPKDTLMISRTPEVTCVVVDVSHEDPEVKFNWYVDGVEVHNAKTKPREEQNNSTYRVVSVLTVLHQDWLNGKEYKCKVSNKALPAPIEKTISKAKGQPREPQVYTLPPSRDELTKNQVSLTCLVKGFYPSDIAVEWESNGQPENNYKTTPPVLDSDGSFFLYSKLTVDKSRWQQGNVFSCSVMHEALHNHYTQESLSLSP
light: DIVMTQSPLSLPVTPGEPASISCQASESLVHSNRNTYLHWYLQKPGQSPQLLIYKVSNRFSGVPDRFSGSGSGTDFTLKISRVEAEDVGVYYCSQNTHVPPTFGQGTKVEIERTVAAPSVFIFPPSDEQLKSGTASVVCLLNNFYPREAKVQWKVDNALQSGNSQESVTEQDSKDSTYSLSSTLTLSKADYEKHKVYACEVTHQGLSSPVTKSFNRGEC
notes: also called Ho Ab Y296_18N
B2: GpH7-B3 variant T335_16H/GpL16-k0 (antibody, human IgG1, kappa)
heavy: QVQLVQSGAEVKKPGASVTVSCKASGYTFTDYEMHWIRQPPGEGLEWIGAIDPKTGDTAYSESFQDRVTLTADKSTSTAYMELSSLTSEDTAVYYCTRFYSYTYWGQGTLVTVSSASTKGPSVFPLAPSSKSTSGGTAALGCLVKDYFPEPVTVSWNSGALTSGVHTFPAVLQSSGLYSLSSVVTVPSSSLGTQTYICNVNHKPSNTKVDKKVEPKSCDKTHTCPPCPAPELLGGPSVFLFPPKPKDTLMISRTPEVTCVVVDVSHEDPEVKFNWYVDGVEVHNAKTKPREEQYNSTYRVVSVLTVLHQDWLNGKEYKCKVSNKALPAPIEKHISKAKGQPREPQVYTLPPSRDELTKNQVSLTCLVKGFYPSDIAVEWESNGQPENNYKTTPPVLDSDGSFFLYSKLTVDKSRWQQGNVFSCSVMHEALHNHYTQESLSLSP
light: B1 light
notes: also called Ho Ab T335_16H
B3: GpH7-B3 variant S337_09D/GpL16-k0 (antibody, human IgG1, kappa)
heavy: not shown
light: B1 light
notes: also called Ho Ab S337_09D
B4: GpH7-B3 variant S267_02A/GpL16-k0 (antibody, human IgG1, kappa)
heavy: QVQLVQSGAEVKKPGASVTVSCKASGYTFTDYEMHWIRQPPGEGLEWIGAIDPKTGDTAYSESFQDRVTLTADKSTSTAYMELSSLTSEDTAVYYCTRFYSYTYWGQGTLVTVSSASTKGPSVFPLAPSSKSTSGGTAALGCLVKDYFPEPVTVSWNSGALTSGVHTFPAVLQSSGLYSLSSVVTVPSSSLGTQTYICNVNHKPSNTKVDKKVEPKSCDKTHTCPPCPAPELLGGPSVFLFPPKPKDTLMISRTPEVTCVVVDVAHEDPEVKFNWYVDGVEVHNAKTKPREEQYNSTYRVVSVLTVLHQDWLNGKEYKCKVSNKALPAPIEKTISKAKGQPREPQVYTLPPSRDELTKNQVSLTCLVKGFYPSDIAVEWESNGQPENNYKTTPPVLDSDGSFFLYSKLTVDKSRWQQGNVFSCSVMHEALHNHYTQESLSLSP
light: B1 light
notes: also called Ho Ab S267_02A
B5: GpH7-B3 variant S239_09D/GpL16-k0 (antibody, human IgG1, kappa)
heavy: not shown
light: B1 light
notes: also called Ho Ab S239_09D
B6: GpH7-B3 variant S324_02A/GpL16-k0 (antibody, human IgG1, kappa)
heavy: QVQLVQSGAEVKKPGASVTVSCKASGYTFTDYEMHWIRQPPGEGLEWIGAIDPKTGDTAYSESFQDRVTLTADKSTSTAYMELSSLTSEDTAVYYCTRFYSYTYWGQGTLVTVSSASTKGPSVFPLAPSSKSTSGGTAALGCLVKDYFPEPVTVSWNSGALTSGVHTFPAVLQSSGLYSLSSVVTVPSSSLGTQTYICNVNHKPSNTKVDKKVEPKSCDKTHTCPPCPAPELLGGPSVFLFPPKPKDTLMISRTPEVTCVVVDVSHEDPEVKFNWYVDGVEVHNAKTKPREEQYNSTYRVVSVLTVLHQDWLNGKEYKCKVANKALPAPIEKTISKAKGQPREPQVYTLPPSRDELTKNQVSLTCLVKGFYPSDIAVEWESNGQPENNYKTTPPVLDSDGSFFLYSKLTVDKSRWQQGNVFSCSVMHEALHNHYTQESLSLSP
light: B1 light
notes: also called Ho Ab S324_02A
B7: GpH7-B3 variant L328_06M/GpL16-k0 (antibody, human IgG1, kappa)
heavy: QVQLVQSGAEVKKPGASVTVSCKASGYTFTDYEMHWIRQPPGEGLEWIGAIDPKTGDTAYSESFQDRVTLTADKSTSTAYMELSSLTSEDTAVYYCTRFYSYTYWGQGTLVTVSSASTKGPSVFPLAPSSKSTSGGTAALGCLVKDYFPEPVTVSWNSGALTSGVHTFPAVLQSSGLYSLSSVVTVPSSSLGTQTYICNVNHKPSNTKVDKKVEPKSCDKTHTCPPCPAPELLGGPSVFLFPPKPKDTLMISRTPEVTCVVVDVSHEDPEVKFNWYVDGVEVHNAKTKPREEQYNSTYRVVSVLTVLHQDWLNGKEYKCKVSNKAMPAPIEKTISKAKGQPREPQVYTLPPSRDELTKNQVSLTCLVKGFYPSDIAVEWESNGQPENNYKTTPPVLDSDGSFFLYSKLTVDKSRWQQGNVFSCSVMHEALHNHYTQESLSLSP
light: B1 light
notes: also called Ho Ab L328_06M
B8: GpH7-B3 variant L328_14T/GpL16-k0 (antibody, human IgG1, kappa)
heavy: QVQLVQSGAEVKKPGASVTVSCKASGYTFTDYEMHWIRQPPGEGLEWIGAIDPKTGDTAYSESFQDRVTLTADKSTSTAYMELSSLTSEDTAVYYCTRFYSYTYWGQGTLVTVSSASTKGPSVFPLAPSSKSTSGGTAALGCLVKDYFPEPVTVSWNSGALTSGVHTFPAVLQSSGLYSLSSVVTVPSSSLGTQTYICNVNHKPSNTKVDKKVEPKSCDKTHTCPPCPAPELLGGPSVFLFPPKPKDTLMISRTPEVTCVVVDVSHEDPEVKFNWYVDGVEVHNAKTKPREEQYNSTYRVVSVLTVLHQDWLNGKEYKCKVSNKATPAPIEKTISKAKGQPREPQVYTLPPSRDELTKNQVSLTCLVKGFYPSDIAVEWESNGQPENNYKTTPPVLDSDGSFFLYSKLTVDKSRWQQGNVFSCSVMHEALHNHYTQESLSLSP
light: B1 light
notes: also called Ho Ab L328_14T
B9: GpH7-B3 variant L328_20W/GpL16-k0 (antibody, human IgG1, kappa)
heavy: not shown
light: B1 light
notes: also called Ho Ab L328_20W
B10: GpH7-B3 variant L235_20W/GpL16-k0 (antibody, human IgG1, kappa)
heavy: not shown
light: B1 light
notes: also called Ho Ab L235_20W
B11: GpH7-B3 variant T335_13S/GpL16-k0 (antibody, human IgG1, kappa)
heavy: not shown
light: B1 light
notes: also called Ho Ab T335_13S
B12: GpH7-B3 variant T335_01G/GpL16-k0 (antibody, human IgG1, kappa)
heavy: not shown
light: B1 light
notes: also called Ho Ab T335_01G
B13: GpH7-B3 variant T335_19Q/GpL16-k0 (antibody, human IgG1, kappa)
heavy: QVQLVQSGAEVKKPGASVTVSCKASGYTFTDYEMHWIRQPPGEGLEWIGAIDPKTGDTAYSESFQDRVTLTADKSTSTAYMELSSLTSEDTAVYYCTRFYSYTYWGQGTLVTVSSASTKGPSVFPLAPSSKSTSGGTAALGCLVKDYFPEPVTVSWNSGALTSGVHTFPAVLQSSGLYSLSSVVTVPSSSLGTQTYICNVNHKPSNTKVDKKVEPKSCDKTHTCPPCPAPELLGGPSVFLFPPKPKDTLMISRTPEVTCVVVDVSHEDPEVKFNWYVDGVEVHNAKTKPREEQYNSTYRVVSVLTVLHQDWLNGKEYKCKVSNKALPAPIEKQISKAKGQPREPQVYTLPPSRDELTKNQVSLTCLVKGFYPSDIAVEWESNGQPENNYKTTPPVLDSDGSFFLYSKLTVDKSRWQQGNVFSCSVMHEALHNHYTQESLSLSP
light: B1 light
notes: also called Ho Ab T335_19Q
B14: GpH7-B3 variant L235_04F/GpL16-k0 (antibody, human IgG1, kappa)
heavy: not shown
light: B1 light
notes: also called Ho Ab L235_04F
B15: GpH7-B3 variant T335_10E/GpL16-k0 (antibody, human IgG1, kappa)
heavy: not shown
light: B1 light
notes: also called Ho Ab T335_10E
B16: GpH7-B3 variant V266_07I/GpL16-k0 (antibody, human IgG1, kappa)
heavy: not shown
light: B1 light
notes: also called Ho Ab V266_07I
B17: GpH7-B3 variant L235_15Y/GpL16-k0 (antibody, human IgG1, kappa)
heavy: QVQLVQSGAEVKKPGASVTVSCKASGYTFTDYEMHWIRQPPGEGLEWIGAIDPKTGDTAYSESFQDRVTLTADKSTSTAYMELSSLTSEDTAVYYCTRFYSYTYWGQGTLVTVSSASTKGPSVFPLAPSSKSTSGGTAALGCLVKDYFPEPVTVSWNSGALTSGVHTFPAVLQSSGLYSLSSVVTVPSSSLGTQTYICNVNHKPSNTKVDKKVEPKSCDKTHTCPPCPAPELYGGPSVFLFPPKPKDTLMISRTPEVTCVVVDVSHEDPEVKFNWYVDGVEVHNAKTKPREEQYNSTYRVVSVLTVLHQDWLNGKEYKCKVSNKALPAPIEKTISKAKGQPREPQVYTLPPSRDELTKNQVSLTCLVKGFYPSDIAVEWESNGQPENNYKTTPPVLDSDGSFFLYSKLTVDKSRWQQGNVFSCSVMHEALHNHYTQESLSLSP
light: B1 light
notes: also called Ho Ab L235_15Y
B18: GpH7-B3 variant T335_15Y/GpL16-k0 (antibody, human IgG1, kappa)
heavy: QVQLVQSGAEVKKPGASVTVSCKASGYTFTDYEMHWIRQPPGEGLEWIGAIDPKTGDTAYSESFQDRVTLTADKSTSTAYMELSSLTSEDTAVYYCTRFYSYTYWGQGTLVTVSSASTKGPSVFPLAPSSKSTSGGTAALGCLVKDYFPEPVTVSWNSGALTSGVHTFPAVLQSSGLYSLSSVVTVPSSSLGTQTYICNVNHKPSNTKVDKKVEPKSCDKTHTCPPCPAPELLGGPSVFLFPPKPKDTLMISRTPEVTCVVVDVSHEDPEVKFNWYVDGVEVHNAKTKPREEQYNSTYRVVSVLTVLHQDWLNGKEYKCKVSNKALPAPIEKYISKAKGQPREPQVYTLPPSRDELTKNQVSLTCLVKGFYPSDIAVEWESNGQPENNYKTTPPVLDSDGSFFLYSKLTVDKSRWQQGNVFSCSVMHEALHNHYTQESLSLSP
light: B1 light
notes: also called Ho Ab T335_15Y
B19: GpH7-B3 variant T335_07I/GpL16-k0 (antibody, human IgG1, kappa)
heavy: not shown
light: B1 light
notes: also called Ho Ab T335_07I
B20: GpH7-B3 variant K334_16H/GpL16-k0 (antibody, human IgG1, kappa)
heavy: not shown
light: B1 light
notes: also called Ho Ab K334_16H
B21: GpH7-B3 variant S337_10E/GpL16-k0 (antibody, human IgG1, kappa)
heavy: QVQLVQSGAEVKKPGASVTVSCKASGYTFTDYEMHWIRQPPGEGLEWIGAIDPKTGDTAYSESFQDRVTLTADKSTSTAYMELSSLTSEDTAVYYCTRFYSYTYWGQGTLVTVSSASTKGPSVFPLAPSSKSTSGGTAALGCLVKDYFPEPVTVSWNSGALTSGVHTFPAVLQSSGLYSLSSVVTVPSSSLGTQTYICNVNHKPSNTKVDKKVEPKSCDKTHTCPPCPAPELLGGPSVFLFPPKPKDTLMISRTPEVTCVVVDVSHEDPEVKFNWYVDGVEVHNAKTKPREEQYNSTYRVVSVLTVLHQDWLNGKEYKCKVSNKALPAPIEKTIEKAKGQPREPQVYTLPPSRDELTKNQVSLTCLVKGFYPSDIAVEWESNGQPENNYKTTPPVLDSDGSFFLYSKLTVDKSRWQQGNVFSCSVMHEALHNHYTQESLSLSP
light: B1 light
notes: also called Ho Ab S337_10E
B22: GpH7-A5/GpH7-B3 variant A327_09D/GpL16-k0 (antibody, human IgG1, kappa)
heavy 1: not shown
heavy 2: not shown
light: B1 light
notes: also called He Ab A327_09D
B23: GpH7-A5/GpH7-B3 variant L234_04F/GpL16-k0 (antibody, human IgG1, kappa)
heavy 1: not shown
heavy 2: not shown
light: B1 light
notes: also called He Ab L234_04F
B24: GpH7-A5/GpH7-B3 variant I336_10E/GpL16-k0 (antibody, human IgG1, kappa)
heavy 1: not shown
heavy 2: not shown
light: B1 light
notes: also called He Ab I336_10E
B25: GpH7-A5/GpH7-B3 variant K334_19Q/GpL16-k0 (antibody, human IgG1, kappa)
heavy 1: not shown
heavy 2: not shown
light: B1 light
notes: also called He Ab K334_19Q
B26: GpH7-A5/GpH7-B3 variant G236_14T/GpL16-k0 (antibody, human IgG1, kappa)
heavy 1: not shown
heavy 2: not shown
light: B1 light
notes: also called He Ab G236_14T
B27: GpH7-A5/GpH7-B3 variant K326_12R/GpL16-k0 (antibody, human IgG1, kappa)
heavy 1: not shown
heavy 2: not shown
light: B1 light
notes: also called He Ab K326_12R
B28: GpH7-A5/GpH7-B3 variant I336_03V/GpL16-k0 (antibody, human IgG1, kappa)
heavy 1: not shown
heavy 2: not shown
light: B1 light
notes: also called He Ab I336_03V
B29: GpH7-A5/GpH7-B3 variant K334_13S/GpL16-k0 (antibody, human IgG1, kappa)
heavy 1: not shown
heavy 2: not shown
light: B1 light
notes: also called He Ab K334_13S
B30: GpH7-A5/GpH7-B3 variant K326_01G/GpL16-k0 (antibody, human IgG1, kappa)
heavy 1: not shown
heavy 2: not shown
light: B1 light
notes: also called He Ab K326_01G
B31: GpH7-A5/GpH7-B3 variant A330_19Q/GpL16-k0 (antibody, human IgG1, kappa)
heavy 1: not shown
heavy 2: not shown
light: B1 light
notes: also called He Ab A330_19Q
B32: GpH7-A5/GpH7-B3 variant G236_04F/GpL16-k0 (antibody, human IgG1, kappa)
heavy 1: not shown
heavy 2: not shown
light: B1 light
notes: also called He Ab G236_04F
B33: GpH7-A5/GpH7-B3 variant E333_13S/GpL16-k0 (antibody, human IgG1, kappa)
heavy 1: not shown
heavy 2: not shown
light: B1 light
notes: also called He Ab E333_13S
B34: GpH7-A5/GpH7-B3 variant G236_15Y/GpL16-k0 (antibody, human IgG1, kappa)
heavy 1: not shown
heavy 2: not shown
light: B1 light
notes: also called He Ab G236_15Y
B35: GpH7-A5/GpH7-B3 variant E333_14T/GpL16-k0 (antibody, human IgG1, kappa)
heavy 1: not shown
heavy 2: not shown
light: B1 light
notes: also called He Ab E333_14T
B36: GpH7-A5/GpH7-B3 variant I336_18N/GpL16-k0 (antibody, human IgG1, kappa)
heavy 1: not shown
heavy 2: not shown
light: B1 light
notes: also called He Ab I336_18N
B37: GpH7-A5/GpH7-B3 variant K326_07I/GpL16-k0 (antibody, human IgG1, kappa)
heavy 1: not shown
heavy 2: not shown
light: B1 light
notes: also called He Ab K326_07I
B38: GpH7-A5/GpH7-B3 variant E333_04F/GpL16-k0 (antibody, human IgG1, kappa)
heavy 1: not shown
heavy 2: not shown
light: B1 light
notes: also called He Ab E333_04F
B39: GpH7-A5/GpH7-B3 variant E333_08L/GpL16-k0 (antibody, human IgG1, kappa)
heavy 1: not shown
heavy 2: not shown
light: B1 light
notes: also called He Ab E333_08L
B40: GpH7-A5/GpH7-B3 variant L234_15Y/GpL16-k0 (antibody, human IgG1, kappa)
heavy 1: not shown
heavy 2: not shown
light: B1 light
notes: also called He Ab L234_15Y

Consider 40 molecules from patent US20150344570A1 (published 2015).

T1 sequence (P12318 34-217): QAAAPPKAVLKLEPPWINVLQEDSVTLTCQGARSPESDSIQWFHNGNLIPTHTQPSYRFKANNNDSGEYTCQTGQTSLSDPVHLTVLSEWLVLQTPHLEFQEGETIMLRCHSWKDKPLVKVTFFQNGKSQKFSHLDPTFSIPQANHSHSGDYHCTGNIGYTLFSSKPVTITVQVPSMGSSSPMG

One test has as its target T1, FcγRIIa H (human, UniProt P12318 34-217). As to the kind of experiment: SPR Biacore, captured antibody, FcγR analyte; vs GpH7-B3/GpL16-k0 = 100. In general terms: Surface plasmon resonance follows binding to a sensor surface in real time, without labels.
As for B1, the Ho/Con_2aH was 100 % of control.

B2: the Ho/Con_2aH is 100 % of control.

Take B3: the Ho/Con_2aH is 107 % of control.

Consider B4, for which the Ho/Con_2aH is 120 % of control.

For the molecule B5, the Ho/Con_2aH is 112 % of control.

B6: the Ho/Con_2aH was 102 % of control.

For the molecule B7, the Ho/Con_2aH was 100 % of control.

As to B8, the Ho/Con_2aH is 110 % of control.

In the case of B9, the Ho/Con_2aH is 112 % of control.

With B10, the Ho/Con_2aH is 112 % of control.

Take B11: the Ho/Con_2aH is 101 % of control.

Regarding B12, the Ho/Con_2aH was 101 % of control.

As to B13, the Ho/Con_2aH is 103 % of control.

As for B14, the Ho/Con_2aH was 101 % of control.

With B15, the Ho/Con_2aH was 105 % of control.

For the molecule B16, the Ho/Con_2aH is 104 % of control.

For B17, the Ho/Con_2aH was 107 % of control.

On to B18, for which the Ho/Con_2aH is 102 % of control.

As for B19, the Ho/Con_2aH was 105 % of control.

Take B20: the Ho/Con_2aH was 101 % of control.

With B21, the Ho/Con_2aH was 101 % of control.

The next test addresses T1, FcγRIIa H. As to the kind of experiment: SPR Biacore, captured antibody, FcγR analyte; vs GpH7-A5/GpH7-B3/GpL16-k0 = 100.
Regarding B22, the He/Con_2aH was 105 % of control.

For the molecule B23, the He/Con_2aH is 120 % of control.

As to B24, the He/Con_2aH is 102 % of control.

Consider B25, for which the He/Con_2aH is 101 % of control.

Consider B26, for which the He/Con_2aH was 103 % of control.

As for B27, the He/Con_2aH was 101 % of control.

Turning to B28, the He/Con_2aH was 102 % of control.

For B29, the He/Con_2aH is 102 % of control.

Turning to B30, the He/Con_2aH was 100 % of control.

Regarding B31, the He/Con_2aH was 102 % of control.

With B32, the He/Con_2aH was 118 % of control.

As for B33, the He/Con_2aH is 101 % of control.

For the molecule B34, the He/Con_2aH is 136 % of control.

In the case of B35, the He/Con_2aH is 100 % of control.

In the case of B36, the He/Con_2aH is 103 % of control.

On to B37, for which the He/Con_2aH was 100 % of control.

As for B38, the He/Con_2aH was 102 % of control.

Regarding B39, the He/Con_2aH was 102 % of control.

As for B40, the He/Con_2aH is 120 % of control.
